± gives the standard deviation.
Assay: protein stability index of a GFP-peptide fusion (GPS, HEK-293T) (PSI 1-6); higher = more stable
Details: c terminus: a fixed tail appended
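Note: 24-mer peptide tiles fused after GFP, lentivirally expressed, FACS-sorted into six equal bins by GFP/DsRed ratio, decoded by Illumina sequencing, PSI is the read-weighted mean bin number.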

QPVPNTTEPDYKSKDWVFLNYTYK [STK38L]
protein stability index (treatment: DMSO): 3.33 ± 0.63 | protein stability index (treatment: MLN4924 1 uM, 8 h): 3.14 ± 0.31

LFGGEFEDSVFEERPERRSGPPAS [C8orf76]
protein stability index (treatment: DMSO): 4.75 ± 0.18 | protein stability index (treatment: MLN4924 1 uM, 8 h): 4.69 ± 0.2

RDKAKMRNLETQHKVLELTAENER [CEBPB]
protein stability index (treatment: DMSO): 4.9 ± 0.2 | protein stability index (treatment: MLN4924 1 uM, 8 h): 5.24 ± 0.24

AVIKSNHSYCRMFLQRGADTNLGR [ASB7]
protein stability index (treatment: DMSO): 2.26 ± 0.16 | protein stability index (treatment: MLN4924 1 uM, 8 h): 2.41 ± 0.14

QPPVPSLSEVKPPPPPPPAQTFLF [TRADD]
protein stability index (treatment: DMSO): 3.41 ± 0.49 | protein stability index (treatment: MLN4924 1 uM, 8 h): 3.44 ± 0.12

GCECEDGPDGQEMDPPNPEEVKTP [GAGE1]
protein stability index (treatment: DMSO): 5.48 ± 0.25 | protein stability index (treatment: MLN4924 1 uM, 8 h): 5.81 ± 0.14

NETRRKHETRLVEVDSGRQIEYEY [LMNB1]
protein stability index (treatment: DMSO): 4.54 ± 0.14 | protein stability index (treatment: MLN4924 1 uM, 8 h): 4.57 ± 0.23

AVGQDCYTRIWSLHDARLLRTIPS [DCAF4]
protein stability index (treatment: DMSO): 2.48 ± 0.36 | protein stability index (treatment: MLN4924 1 uM, 8 h): 2.39 ± 0.26

TQRQFTILNFNDLMSSAVPMTPED [AASDHPPT]
protein stability index (treatment: DMSO): 3.74 ± 0.14 | protein stability index (treatment: MLN4924 1 uM, 8 h): 3.38 ± 0.35

EKPYGCSECGKAFPRKSELTEHQR [ZNF649]
protein stability index (treatment: DMSO): 3.95 ± 0.49 | protein stability index (treatment: MLN4924 1 uM, 8 h): 4.44 ± 0.52

SWACAFTNALTHTVAMSTLNFCGP [OR3A1]
protein stability index (treatment: DMSO): 3.47 ± 0.13 | protein stability index (treatment: MLN4924 1 uM, 8 h): 3.15 ± 0.049

KIREQNLQDIKTAGPQSQVLCGVV [ADD1]
protein stability index (treatment: DMSO): 3.15 ± 0.43 | protein stability index (treatment: MLN4924 1 uM, 8 h): 3.37 ± 0.24

FRLTTLLMSGCSSELKNRMEYALN [PLK2]
protein stability index (treatment: DMSO): 2.46 ± 0.53 | protein stability index (treatment: MLN4924 1 uM, 8 h): 2.35 ± 0.47

LESEGKNSKKEEPQELLQSQDFVG [ATE1]
protein stability index (treatment: DMSO): 5.73 ± 0.27 | protein stability index (treatment: MLN4924 1 uM, 8 h): 5.54 ± 0.14

YADFERFSKVLEEAAAAEEGLREL [DAPK3]
protein stability index (treatment: DMSO): 2.46 ± 0.18

SLQESVEDSLATVKVVLIPVGQEI [IQUB]
protein stability index (treatment: DMSO): 2.49 ± 0.53 | protein stability index (treatment: MLN4924 1 uM, 8 h): 2.24 ± 0.46

KEAFDTIQEQKVVLEENGEKNQVQ [SASS6]
protein stability index (treatment: DMSO): 5.49 ± 0.34 | protein stability index (treatment: MLN4924 1 uM, 8 h): 5.71 ± 0.11

MAAAVAAAPGALGSLHAGGARLVA [AUH]
protein stability index (treatment: DMSO): 2.8 ± 0.58 | protein stability index (treatment: MLN4924 1 uM, 8 h): 3.12 ± 0.39

RKRMGTRRGRHEQSPTSRPRKVSS [C22orf15]
protein stability index (treatment: DMSO): 4.7 ± 0.25 | protein stability index (treatment: MLN4924 1 uM, 8 h): 4.59 ± 0.13

LNYTYKRFEGLTQRGSIPTYMKAG [STK38L]
protein stability index (treatment: DMSO): 2.5 ± 0.18 | protein stability index (treatment: MLN4924 1 uM, 8 h): 2.67 ± 0.22

LVATNAHLDHYYQEELPALLKALV [FCHSD1]
protein stability index (treatment: DMSO): 2.24 ± 0.23 | protein stability index (treatment: MLN4924 1 uM, 8 h): 2.19 ± 0.36

PKRLRCWEEEEDHEKERPEHKSLE [FANCE]
protein stability index (treatment: DMSO): 5.32 ± 0.17 | protein stability index (treatment: MLN4924 1 uM, 8 h): 5.37 ± 0.33

TLKQQHQQAVEQIAKAEETHSSLS [CCDC89]
protein stability index (treatment: DMSO): 5.07 ± 0.21 | protein stability index (treatment: MLN4924 1 uM, 8 h): 5.09 ± 0.14

SGHALRILIVDWDVHHGNGTQHMF [HDAC6]
protein stability index (treatment: DMSO): 2.74 ± 0.44 | protein stability index (treatment: MLN4924 1 uM, 8 h): 3.02 ± 0.75

GVSREEIEREVNILREIRHPNIIT [DAPK3]
protein stability index (treatment: DMSO): 2.38 ± 0.42

KDPAYFYGYVYFRQVRDKTLKRGY [DENND6A]
protein stability index (treatment: DMSO): 2.44 ± 0.31 | protein stability index (treatment: MLN4924 1 uM, 8 h): 1.96 ± 0.29

PFLLLFLGNFFTTLRVVHHKFHSQ [TMEM120A]
protein stability index (treatment: DMSO): 3.28 ± 0.37 | protein stability index (treatment: MLN4924 1 uM, 8 h): 3.1 ± 0.22

KSPDNEDSGDSKDIRLTLMEEVLL [GOLPH3L]
protein stability index (treatment: DMSO): 3.82 ± 0.3 | protein stability index (treatment: MLN4924 1 uM, 8 h): 4.07 ± 0.19

VAPADVRRLLSYCKGRDHGVLDAL [ZSWIM9]
protein stability index (treatment: DMSO): 2.46 ± 0.28 | protein stability index (treatment: MLN4924 1 uM, 8 h): 2.68 ± 0.46

RNSGPVVEKLKQMQEFFGLKVTGK [MMP1]
protein stability index (treatment: DMSO): 3.16 ± 0.079 | protein stability index (treatment: MLN4924 1 uM, 8 h): 3.14 ± 0.39

TLEITLKDIVQTVRSRLEEAGIKV [TENT5C]
protein stability index (treatment: DMSO): 2.02 ± 0.35 | protein stability index (treatment: MLN4924 1 uM, 8 h): 2.18 ± 0.35

VVVKLLHPPSHWPLIKATVGLIRN [CTNNB1]
protein stability index (treatment: DMSO): 2.48 ± 0.66 | protein stability index (treatment: MLN4924 1 uM, 8 h): 2.51 ± 0.64

VKTGEDGSNLDDAKGLAESLELPK [FANCE]
protein stability index (treatment: DMSO): 5.44 ± 0.18 | protein stability index (treatment: MLN4924 1 uM, 8 h): 5.49 ± 0.14

VWWVSQFVKYLIRPQPWLEKEIEE [FUT8]
protein stability index (treatment: DMSO): 2.32 ± 0.46 | protein stability index (treatment: MLN4924 1 uM, 8 h): 2.035 ± 0.002

SWVDDTPFNKVQSARFWIPGEPNN [CD207]
protein stability index (treatment: DMSO): 2.44 ± 0.15 | protein stability index (treatment: MLN4924 1 uM, 8 h): 2.51 ± 0.45

MKNLLFSEMWDIFLVRLLMAMAVM [MFSD9]
protein stability index (treatment: DMSO): 3.14 ± 0.48 | protein stability index (treatment: MLN4924 1 uM, 8 h): 3.22 ± 0.77

DSRLMCSSVQKALFEEEDHVKKLQ [CCDC3]
protein stability index (treatment: DMSO): 4.71 ± 0.16 | protein stability index (treatment: MLN4924 1 uM, 8 h): 4.74 ± 0.25

IYLATSSSKFYDLFLMECEESPNG [RHOBTB1]
protein stability index (treatment: DMSO): 2.66 ± 1.7 | protein stability index (treatment: MLN4924 1 uM, 8 h): 2.71 ± 0.98

SDYPSPDISPPIFRRGEKLRVISD [SLA]
protein stability index (treatment: DMSO): 3.88 ± 0.3 | protein stability index (treatment: MLN4924 1 uM, 8 h): 4.2 ± 0.25

VGFRLCNSTGGDCFYRGYTSGVAA [SCNN1D]
protein stability index (treatment: DMSO): 2.01 ± 0.58 | protein stability index (treatment: MLN4924 1 uM, 8 h): 1.94 ± 0.54

GCTGDEAESRGHSKGWGRNYASII [MYCL]
protein stability index (treatment: DMSO): 3.1 ± 0.13 | protein stability index (treatment: MLN4924 1 uM, 8 h): 3.2 ± 0.17

RSLLPSTEYQKQLLAAQVQLQCSP [FBF1]
protein stability index (treatment: DMSO): 3.46 ± 0.41 | protein stability index (treatment: MLN4924 1 uM, 8 h): 3.73 ± 0.18

EEPRPSRPRYKADVPDLQSVCSCT [KCNK9]
protein stability index (treatment: DMSO): 4.62 ± 0.13 | protein stability index (treatment: MLN4924 1 uM, 8 h): 4.55 ± 0.19

AKDLPCDSKPESALGAPSKSPSSP [TBX5]
protein stability index (treatment: DMSO): 5.49 ± 0.26 | protein stability index (treatment: MLN4924 1 uM, 8 h): 5.54 ± 0.2

RVEDAFYTLVREIRQYRLKKISKE [KRAS]
protein stability index (treatment: DMSO): 2.3 ± 0.17

SDFKTDKEGGQAGSGQRVPALEEA [ELOA2]
protein stability index (treatment: DMSO): 5.61 ± 0.18 | protein stability index (treatment: MLN4924 1 uM, 8 h): 5.49 ± 0.22

EDQYIFIHDALLEAVTCGNTEVPA [PTPRD]
protein stability index (treatment: DMSO): 3.1 ± 0.32 | protein stability index (treatment: MLN4924 1 uM, 8 h): 3.01 ± 0.31

IMPDGTIVTTVTTVQSRPRIDGKL [C2CD2L]
protein stability index (treatment: DMSO): 3.31 ± 0.16 | protein stability index (treatment: MLN4924 1 uM, 8 h): 3.29 ± 0.39

AARLLFNMAGVTFRKFIPKCSKIV [DCTD]
protein stability index (treatment: DMSO): 1.97 ± 0.15 | protein stability index (treatment: MLN4924 1 uM, 8 h): 2 ± 0.18

EPPEEPEQCPVIDSQAPAGSLDLV [SPDEF]
protein stability index (treatment: DMSO): 5.37 ± 0.17 | protein stability index (treatment: MLN4924 1 uM, 8 h): 5.51 ± 0.18

RTDSREQKLDAFLQPLSKPLSSQP [MLH1]
protein stability index (treatment: DMSO): 4.32 ± 0.082 | protein stability index (treatment: MLN4924 1 uM, 8 h): 4.44 ± 0.14

FAELSVDMEKILEIIRVILKLYEQ [CCNC]
protein stability index (treatment: DMSO): 2.2 ± 0.12 | protein stability index (treatment: MLN4924 1 uM, 8 h): 2.69 ± 0.25

EEFPKREDQEGSPPETSLPYKWVV [MYBL2]
protein stability index (treatment: DMSO): 3.83 ± 0.33 | protein stability index (treatment: MLN4924 1 uM, 8 h): 3.99 ± 0.41

FEQYCAWQLFLAHNIPLETIIPIL [INTS3]
protein stability index (treatment: DMSO): 3.27 ± 0.74 | protein stability index (treatment: MLN4924 1 uM, 8 h): 2.85 ± 0.34

VDFLEPDSGTCPEVDEEGFTVRPD [FCHO1]
protein stability index (treatment: DMSO): 5.45 ± 0.086 | protein stability index (treatment: MLN4924 1 uM, 8 h): 5.43 ± 0.1

DDSCLNNDIPHSIPLEQGSSCNGP [FAN1]
protein stability index (treatment: DMSO): 5.17 ± 0.19 | protein stability index (treatment: MLN4924 1 uM, 8 h): 5.09 ± 0.1

GASSCDGCKGFFRRSVRKNHMYSC [HNF4A]
protein stability index (treatment: DMSO): 2.36 ± 0.22 | protein stability index (treatment: MLN4924 1 uM, 8 h): 2.62 ± 0.26

TSSPAIWKFPVPVLKTSRSTPLSP [KLHL13]
protein stability index (treatment: DMSO): 3.19 ± 0.21 | protein stability index (treatment: MLN4924 1 uM, 8 h): 3.32 ± 0.086

SWSQYEMPEFSSDSTMRILSNLVQ [RTP4]
protein stability index (treatment: DMSO): 2.48 ± 0.24 | protein stability index (treatment: MLN4924 1 uM, 8 h): 2.59 ± 0.3

RAQKQCRKSSFAFYQAVRDLLPVW [ANKRD9]
protein stability index (treatment: DMSO): 2.33 ± 0.49 | protein stability index (treatment: MLN4924 1 uM, 8 h): 1.98 ± 0.31

NIDETCGRHHSQSTEVQAHPYSTT [TEKT4]
protein stability index (treatment: DMSO): 4.62 ± 0.091 | protein stability index (treatment: MLN4924 1 uM, 8 h): 4.54 ± 0.07

FACPSKTDFFKNIMNFIDIVAIIP [KCNA1]
protein stability index (treatment: DMSO): 3.29 ± 0.58 | protein stability index (treatment: MLN4924 1 uM, 8 h): 3.1 ± 0.49

PGSGPGHGSGSHPGPASGPGPDTG [SPAG8]
protein stability index (treatment: DMSO): 5.36 ± 0.16 | protein stability index (treatment: MLN4924 1 uM, 8 h): 5.34 ± 0.069

NNEEQRSGLIYLTNHIAPHARNGL [IKZF1]
protein stability index (treatment: DMSO): 3.34 ± 0.33 | protein stability index (treatment: MLN4924 1 uM, 8 h): 3.52 ± 0.2

VILHLKEDQTEYLEERRVKEVVKK [HSP90AB1]
protein stability index (treatment: DMSO): 2.57 ± 0.25 | protein stability index (treatment: MLN4924 1 uM, 8 h): 2.77 ± 0.36

LFRELWRYHFATGVWHQMGTDGYM [KLHDC10]
protein stability index (treatment: DMSO): 3 ± 0.66 | protein stability index (treatment: MLN4924 1 uM, 8 h): 2.8 ± 0.47

Reference: the supplement of paper PMC10567573
